Experimental data reported in patent US20140341971A1 (LIPOTEK, published 2014).

Biological target: T1, human DC-SIGN (DC-specific intercellular adhesion molecule 3-grabbing nonintegrin) (human, UniProt Q9NNX6 1-404)
T1 construct: whole, on cells; Target on THP-1 cells transfected with human DC-SIGN and on human moDCs; also called CD209; human DC marker DC-SIGN
T1 sequence (looked up): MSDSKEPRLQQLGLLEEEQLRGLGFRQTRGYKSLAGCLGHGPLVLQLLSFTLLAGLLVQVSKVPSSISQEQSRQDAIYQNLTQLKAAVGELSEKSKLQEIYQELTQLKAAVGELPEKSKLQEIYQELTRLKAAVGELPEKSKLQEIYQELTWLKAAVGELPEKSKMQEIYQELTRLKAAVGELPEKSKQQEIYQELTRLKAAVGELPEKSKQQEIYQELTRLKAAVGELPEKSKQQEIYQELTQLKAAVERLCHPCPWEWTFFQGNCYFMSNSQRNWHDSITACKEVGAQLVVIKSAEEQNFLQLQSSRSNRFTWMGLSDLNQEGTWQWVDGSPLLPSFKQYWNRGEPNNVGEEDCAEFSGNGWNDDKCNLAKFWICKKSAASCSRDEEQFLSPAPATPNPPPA
Test: confocal microscopy, fluorescent vaccine on human monocyte-derived DCs
Description: FIG. 3: Z-sections through a human monocyte-derived dendritic cell (moDC) incubated with Lipovaxin-MM. […] Cells were placed on coverslips immediately prior to observation under the confocal microscope.

binding result: binds
B1: DMS5000 (other)
VH: STEVQLLESGGGLVQPGGSLRLSCAASGFTFDRRAMGWVRQAPGKGLEWVSSIESDGTRTYYADSVKGRFTISRDNSKNTLYLQMNSLRAEDTAVYYCAKHPGSSYVFDYWGQGTLVTVSS
notes: Human VH domain antibody (dAb), made as a secreted protein in E. coli; also called DC-SIGN specific domain antibody (dAb); dAb
